{"source": "paper doi:10.1101/2022.07.21.500940", "about": "(bioRxiv, 2022)", "target": "Human PCNA (human, UniProt P12004 1-261)", "sequence (P12004 whole entry)": "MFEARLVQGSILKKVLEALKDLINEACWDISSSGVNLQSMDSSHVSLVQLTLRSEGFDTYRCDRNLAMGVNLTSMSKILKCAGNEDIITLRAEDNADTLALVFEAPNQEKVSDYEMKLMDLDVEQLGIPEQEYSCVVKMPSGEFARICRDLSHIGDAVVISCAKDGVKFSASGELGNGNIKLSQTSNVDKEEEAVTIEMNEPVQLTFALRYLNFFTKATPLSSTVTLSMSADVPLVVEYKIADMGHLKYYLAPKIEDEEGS", "experiment": "pull-down", "data": [{"binder": "ARHPSTKVMKQMDIGVYFGLPPKRKEEKLL", "note": "[GST-tagged SNM1A PIP box peptide (GST-PIP)]", "values": [{"measurement": "binding result", "value": "binds"}]}]}
